B1: MOR10110 (antibody, human IgG2, lambda, V domains shown)
VH: QVQLVESGGGLVQPGGSLRLSCAASGFTFTNYAMNWVRQAPGKGLEWVSYISYSSSNTYYADSVKGRFTISRDNSKNTLYLQMNSLRAEDTAVYYCARGAGLGYDVWGQGTLVTVSS
VL: DIELTQPPSVSVAPGQTARISCSGDNLRSKYVYWYQQKPGQAPVLVIYDTNDRPSGIPERFSGSNSGNTATLTISGTQAEDEADYYCQTYDMTSQDVFGGGTKLTVLG
B2: MOR09892 (antibody, human IgG2, lambda, V domains shown)
VH: QVQLVESGGGLVQPGGSLRLSCAASGFTFSSYAMHWVRQAPGKGLEWVSYISYSGSNTYYADSVKGRFTISRDNSKNTLYLQMNSLRAEDTAVYYCARGWGGFDYWGQGTLVTVSS
VL: DIELTQPPSVSVAPGQTARISCSGDNLPNRYVHWYQQKPGQAPVLVIYDDNNRPSGIPERFSGSNSGNTATLTISGTQAEDEADYYCQSRDLHYSPVFGGGTKLTVLG
B3: MOR09281 (antibody, human IgG2, lambda, V domains shown)
VH: QVQLVESGGGLVQPGGSLRLSCAASGFTFSNYWMSWVRQAPGKGLEWVSLISYSGSTTYYADSVKGRFTISRDNSKNTLYLQMNSLRAEDTAVYYCARDTPIGMDFWGQGTLVTVSS
VL: DIELTQPPSVSVAPGQIARISCSGDNLGSYYAYWYQQKPGQAPVLVIYGDNDRPSGIPERFSGSNSGNTATLTISGTQAEDEADYYCSSYDIVQPYVFGGGTKLTVLG
B4: MOR09898 (antibody, human IgG2, lambda, V domains shown)
VH: QVQLVESGGGLVQPGGSLRLSCAASGFTFSNYWMTWVRQAPGKGLEWVSFISYSGSTTYYADSVKGRFTISRDNSKNTLYLQMNSLRAEDTAVYYCAREGTSSMFDVWGQGTLVTVSS
VL: DIELTQPPSVSVAPGQTARISCSGDALRSYYASWYQQKPGQAPVLVIYDDNKRPSGIPERFSGSNSGNTATLTISGTQAEDEADYYCASFTYMSDFVFGGGTKLTVLG

target: mouse Siglec-15 (mouse); assay: cell-based or functional assay

TRAP activity of mouse osteoclasts formed (RANKL-stimulated mouse bone marrow nonadherent cells), ≥ 13 ng/mL:
B1
B2
B3
B4
